Measurements taken from the DeepSol protein solubility set.

Experiment: soluble on expression in E. coli; label from the status in PepcDB or PDB records

Row | Sequence | soluble on expression in E. coli
1 | QMNYEEVIKKYRGEENFDHAAYDWRLHSGVTPVKDQKNCGSCWAFSSIGSVESQYAIRKNKLITLSEQELVDCSFKNYGCNGGLINNAFEDMIELGGICPDGDYPYVSDAPNLCNIDRCTEKYGIKNYLSVPDNKLKEALRFLGPISISVAVSDDFAFYKEGIFDGECGDQLNHAVMLVGFGMKEIVNPLTKKGEKHYYYIIKNSWGQQWGERGFINIETDESGLMRKCGLGTDAFIPLIE | soluble
2 | MITTQDKELLAKKGITEAQIAEQLACFQTGFPYLKLDAAASIEKGILAPDAEEKNAYLAAWDAYKNTDKIIVKFVPASGAASRMFKNLFEFLSAEYDKPTTKFEQAFFDGIKDFAFYDDLNVACQRTAGKDIPGLMEEGNYKAVVAALLETAGLNYGALPKGLLKFHKYPEGSRTPLEEHLAEGAMYAAGKSGKVNVHFTVSTEHRELFKKLVEEKAEAFGKRYGVDYYITFSEQKPNTDTIAADMDNQPFRDNGKLLFRPGGHGALIENLNDLDADIIFIKNIDNVVPDKLKADTVTYKKLIAGVLVSLQKKAFEYLELLDSGKYTHEQIMEILQFLQKQLFCKNPETKNLEDAELVIYLKNKLNRPMRVCGMVKNVGEPGGGPFLAYNSDGTISLQILESSQIDMNDPAKKEMFEKGTHFNPVDLVCAVRDYKGHKFDLVKYVDKATGFISYKSKNGKDLKALELPGLWNGAMSDWNTVFVEVPLTTFNPVKTVNDLLREQHQ | not soluble
3 | MGSDKIHHHHHHMGKPHRIALALQGGGVHGAFTWGVLDALLEEAATGKIEFVGVSGASSGALTATAMAYGYHEGAAQPGPASARSRRMAEAARTKIRELWETVARAAFWGGNPFVAAIGLAQDWNIDDTPAARWADVAGGNTPAAESGLGTYLTAVLRDVLPQIPAIFALPQEGTPTLIVAATDIGECRRQLFIDGAVSPDAVRASTNLPTSLHTVSIGDHHYWDGGYMGNPPLTPLVERLRETNAEDLVLVTLNPLHRDGPPPKGGRQVLDRLNEVAFNASLVHEVNAIETINRLVDADMIKEPPPGQHPYRRVNLHRIHADEEMVKLGVYSKDAPAWDFLVYLRDLGRKAFTESWETIRPALGKHSSWDTNSVCDQILARKAITTREK | not soluble
4 | METTSVFRADFLSELDAPAQAGTESAVSGVEGLPPGSALLVVKRGPNAGSRFLLDQAITSAGRHPDSDIFLDDVTVSRRHAEFRLENNEFNVVDVGSLNGTYVNREPVDSAVLANGDEVQIGKFRLVFLTGPKQGEDLEHHHHHH | not soluble
5 | MSENSIRLTQYSHGAGCGCKISPKVLETILHSEQAKFVDPNLLVGNETRDDAAVYDLGNGTSVISTTDFFMPIVDNPFDFGRIAATNAISDIFAMGGKPIMAIAILGWPINKLSPEIAREVTEGGRYACRQAGIALAGGHSIDAPEPIFGLAVTGIVPTERVKKNSTAQAGCKLFLTKPLGIGVLTTAEKKSLLKPEHQGLATEVMCRMNIAGASFANIEGVKAMTDVTGFGLLGHLSEMCQGAGVQARVDYEAIPKLPGVEEYIKLGAVPGGTERNFASYGHLMGEMPREVRDLLCDPQTSGGLLLAVMPEAENEVKATAAEFGIELTAIGELVPARGGRAMVEIR | soluble
6 | MSLSKSDDGDSEESFSISVQSGFEAMSQELCIVMCLKDLTSIVDIKTSSRPAMIGSLTDGSTETFWESGDEDKNKTKNITINCVKGINARYVSVHVDNSRDLGNKVTSMTFLTGKAVEELCRIKQVDLDSRHIGWVTSELPGGDNQIIKIELKGPENTLRVRQVKVLGWKDGESTKIAGQISASVAQQRSCEAETLRVFRLITSQVFGKLISGDAEEGHHHHHH | soluble
7 | MNDFSLELPVRTNKPRETGQSILIDNGYPLQFFKDAIAGASDYIDFVKFGWGTSLLTKDLEEKISTLKEHDITFFFGGTLFEKYVSQKKVNEFHRYCTYFGCEYIEISNGTLPMTNKEKAAYIADFSDEFLVLSEVGSKDAELASRQSSEEWLEYIVEDMEAGAEKVITEARESGTGGICSSSGDVRFQIVDDIISSDIDINRLIFEAPNKTLQQGFIQKIGPNVNLANIPFHDAIALETLRLGLRSDTFFLLEHHHHHH | not soluble
8 | MGSDKIHHHHHHMSLQSGEWREQIDEVDAALIDEFQSDFPIQERPFEAVGDALGVSAGTALDRVKTLRDDGIFRRFGPVLNPPVIGSSTLAAVSAPEDRFDEVAEIINGYRQVNHNYARDHEWNMWFVVTAGSRQRRDEILAEIEERTGCSVLVLPMLTDYYIDLEFPVVNGDRFARESLETTDATATRISEDAAADLSELDRRLLLEIQSGFPLVATPYRDVADAVDADVSEVLSAIKRLQRTGCIKRIGCVVNHIVTGFDNNCMVVWDVPDDALDERGQAVGELPYVTLCYHRPRRPEQDWQYNLFTMIHGREADIVDEKIDELATDHLPYDHGRLYSTETLKQTGARYDDIVGQ | not soluble
9 | MSLNRVLDILKDRSLTYHQQIKDLAAYAESTIEVLNIDDETKKLIDEGCICTLFEGNAPFRPRYIIPDYSLLMEKGCEFLNLSVPEDIWEATNNLLIFYKHVPSITTFPVYLGNIDELLEPFIEDEREAKRAIKLFLKHIDRTLTDSFVHANIGPRETVAGRLILESMDELQCAVPNLSMKYDLENTPESFINLCAKVALSTAKPSFANHKMDVKSFGTDRYAIASCYNGFHIGGGGYTLVRIKLNEVAKKATSVEDFLENVLPYVSTKMIQYIDERIRFLVEETQFFTSNFLVKEGFIQKKLFTGMFGVVGLAEAVNTLLGAEKQSDRFGYSEKANKLGLRIIEKLNKIVSEHEAKHVNCFGGHYVLHAQVGIDLDQNVSPGCRIPVGEEPELFNHIMQSAPFHKYFYNGIGDIFVFEDTYNDHPEALVDIIKGAFNSGIRYMSVYGSGADVVRVTGYLAKRSEVEKLERGEAVLNNTDLFAMGAKNNCHAFERKIREGHHHHHH | soluble
10 | MAKRVYLLSEARGLSRDLLGGKGHGLAEMAAAGLPVPPAFIVTTEACRQYLKAGEVPGLWGEVRAGMAALEGLTGKRFGRGEGKAPPLLVSVRSGAPVSMPGMMDTVLNLGLTLEGVEALARATGNPRFAWDSLRRLLAMYGEVVLGEGPEVFEGMLSALKAERGVGTDAALGPEDLEELAYRYLRHLEARGTPFPLDPWAQLQGAIEAVFRSWQNPRARTYRRIYGIPEDLGTAVVVQAMVFGNLGEDSGTGVGFTRNPATGEKGLYGEYLRNAQGEDVVAGVRTPEPLERLKGYAPGLYEELLQVAERLERHFRDMQDFEFTVERGRLFLLQTRAGKRTAQAAVRIAVEMAEEGLISREEAVMRVEANALPGLLRPSVDRDQAPRPLLKGLPASPGAAVGHAAFTNEAVERFHAQGLPAVLVRPETTPEDITGMYLAKGILTARGGLTSHAAVVARGLGVPAVVGAEALRVFPGEGRALAEGVEIREGDLLTLDGGTGEVYLGAVPLVEAGGEALLEKLLSWAEPHRRLGVRANADTPEDAQRARAFGAEGIGLCRTEHMFFREDRLPWVRRLILAETPEEEALALERLFHFQKEDFKEILRAMDGLPVTVRLLDPPLHEFLPPLEALARRAEEGDEEAGRLLRRAEALKEANPMLGFRGARLLLLRPGVFRMQLRALLEAARELKEAGHDPRPEVMVPLVADPKEVERARALAEELFREYGPIPFGTMVETPRAALLAAEIAPLVDFFSFGTNDLTQMAFGLSRDDAGKFLPRYVEEGLFPFDPTERLDEKGVGRLLRMAAEEGRKANPRLKLGLCGEHGGEAGSVRFVADLLDYTSASPFRVLTARLAAAQAGLSRALKPA | soluble
11 | SHPNQNDKIVVGLDIGTTKICAIVGRKNEYGKLEILGIGKAVSEGVIRGMVTNINLTVTAIEKAIKEASDQSGIDIGVVNVGIAGQHIKSSVHHHGINRPGGDEEISVDDVNRLTADMYRTVMPFGN | not soluble
12 | MDFDYVIAGGGSAGCTLAARLSEDPSKTVCLIEAGGAGSNLLIRAPAGIIALLPGRPKINNWAFETVPQQGLGGRKGYQPRGKALGGSSAINAMLYTRGHRGDYDEWADLGCDGWSWDEVLPYFRRAEGNQRGADALHGGDGPLRVAEQQEPRPLSRAFVEACGENQIRRNDDFNGVEQEGAGLYQVTQFWGERRNGERCSVAAAYLQPAMNRSNLTVITGAHATAVILDGKRATGVRYRAGKDEAVAKARREVIVCGGAFGSPQLLLLSGIGPAAELAMHGIPVIHELPGVGKNLQDHLDFIMGWTSKDADMMGIGLRGLPGLLRHMLRWRKDGGGMIATPYAEGGAFLKSDPAIERPDLQLHFCIAIVDDHGRKLHMGYGFSCHVCVLRPHSRGEVGLSTHDPMAPPRIDPRFLSDERDAELLLKGVRMMRGILEAPALARYRHKEIYTAGVSSDADLMSHIRARADTIYHPAGTCKMGVDELAVVDPQLRVHGLEALRVVDASVMPTLIGGNTNAPTIMIAEKAADMIKAAALEHHHHHH | not soluble
